These results are taken from US20030027314A1 (published 2003).

Series [1] deals with the molecule itself. The series can be described thus: CD thermal melt, homodimer, 150 mM KCl.
Another series has as its target T1, CREB (unmodified).
T1 construct: also called unmodified CREB
T1 sequence (chain, from a related filing, looked up): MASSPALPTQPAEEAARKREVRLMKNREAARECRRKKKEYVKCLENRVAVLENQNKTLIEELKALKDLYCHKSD
In words: thermal melting curve, mixture (FIG. 3).

The target in series [2] is c-Jun (unmodified). The series can be described thus: from thermal melts, Kd at 37 °C (FIG. 4).
The target of series [3] is c-Jun (unmodified). In words: thermal melting curve, mixture (FIG. 4).
Series [4] concerns the molecule itself. The series can be described thus: homodimer, study of FIG. 9 (method not given).

c-Jun (unmodified), sequence (chain, from a related filing, as listed by the source): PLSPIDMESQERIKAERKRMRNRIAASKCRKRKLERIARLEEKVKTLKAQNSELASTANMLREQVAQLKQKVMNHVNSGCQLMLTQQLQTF

B1: 0heptad-F (F zipper with the basic region deleted) (designed binder)
chain: ASMTGGQQMGRDPGGGTQQEVLELESRNDRLRKEVEQLERELDTLRGIFRQLPESSLVKAMGNCA
notes: expressed in E. coli; also called 0heptad-F (H); heterodimerizing zipper
With B1, the “delta G at 25 °C” value in series [1] is -8 kcal/mol.

B2: 4heptadCREB (CREB with 4 heptad repeats appended at the amino terminus) (designed binder)
chain: ASMTGGQQMGRDPDLEQRAEELARENEELEKEAEELEQENAELENRVAVLENQNKTLIEELKALKDLYCHKSD
notes: also called 4hep-CREB
Consider B2, for which the melting temperature (Tm) in the series with CREB (unmodified) is 53 °C.

B3: 4heptad-Fos (c-Fos with the basic region replaced by four acidic heptad repeats) (designed binder)
chain: MASMTGGQQMGRDPDLEQRAEELARENEELEKEAEELEQENAELEAETDQLEDEKSALQTEIANLLKEKEKLEFILAAHRPACKIP
notes: How the two entries relate is not explained; also called aFos; aZIP 4heptadFos
In turn, B3 displayed a dissociation constant (Kd) with c-Jun (unmodified) [2] of 6 nM. Moreover, the midpoint of thermal melting (Tm) with c-Jun (unmodified) [3] amounted to 61 °C.

B4: 0heptadMax (dimerization domain of Max without an acidic extension) (other)
chain: ASMTGGQQMGRDPDLEELEDSFHSLRDSVPSLQGEKASRAQILDKATEYIQYMRRKNHTHQQDIDDLKRQNALLEQQVRALEKARSSAQLQT
The molecule B4 returned a Kd in series [4] of 100 nM.

A word on the Tm: it is the temperature at the midpoint of the melting transition. Broadly, the Kd is the equilibrium constant for the complex coming apart. A high value points to weaker binding.
